Assay results reported in patent publication US20190191748A1.

Biological target: moAb G12 conjugated to HRP (peroxidase)
Assay: competitive ELISA, gliadin-coated plate, G12-HRP; reference OM719

Row | Substance | cross-reactivity (CR) = (IC50 of OM719 / IC50 of the variety) x 100 [%]
1 | avenins (prolamins) extracted from oat variety OL715 | 24
2 | avenins (prolamins) extracted from oat variety OC723 | 12
3 | avenins (prolamins) extracted from oat variety OA729 | 75

Further lines, results first:

Row | cross-reactivity (CR) = (IC50 of OM719 / IC50 of the variety) x 100 [%] | Substance
4 | 60 | avenins (prolamins) extracted from oat variety OE717
5 | 25 | avenins (prolamins) extracted from oat variety OH727
